Values of other authors as cited in article PMC2363349.

Biological target: TGF-βRII (Homo sapiens) (UniProt P37173)
Sequence (P37173 23-166): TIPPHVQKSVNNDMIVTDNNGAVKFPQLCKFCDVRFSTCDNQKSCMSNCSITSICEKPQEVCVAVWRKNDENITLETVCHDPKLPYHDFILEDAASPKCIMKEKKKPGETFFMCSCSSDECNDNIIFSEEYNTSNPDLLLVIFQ

TGF-β1, sequence (P01137 279-390): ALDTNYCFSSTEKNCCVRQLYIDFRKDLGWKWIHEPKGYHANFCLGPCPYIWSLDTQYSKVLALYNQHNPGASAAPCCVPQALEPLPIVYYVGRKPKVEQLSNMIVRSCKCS

Kd: 0.5 nM
Substance: TGF-β1 (from UniProt P01137)
